Measurements taken from article PMC10302166, “Molecular basis and dual ligand regulation of tetrameric estrogen receptor α/14-3-3ζ protein complex” (The Journal of Biological Chemistry, 2023).
Where no end group is shown, it is not given here.

Assays:
[1] = target: T1, ERαLBD-F-strep (PKA-responsive, non-phosphorylated) (human (from the printed UniProt entry), UniProt P03372 302-595, S305A | F591R | P592R); assay: fluorescence polarisation; as a10 but in the presence of 100 μM E2; apparent KD; conditions: both partners purified
T1 construct: also called ERα-strep; ERα(PKA)-strep; source: E. coli NiCo21 (DE3), purified (Ni-NTA, SUMO cleavage, Strep-Tactin, SEC); not shown: His tag, N-terminal, cleaved; SUMO, N-terminal, cleaved; strep-tag, C-terminal, kept
T1 sequence (looked up): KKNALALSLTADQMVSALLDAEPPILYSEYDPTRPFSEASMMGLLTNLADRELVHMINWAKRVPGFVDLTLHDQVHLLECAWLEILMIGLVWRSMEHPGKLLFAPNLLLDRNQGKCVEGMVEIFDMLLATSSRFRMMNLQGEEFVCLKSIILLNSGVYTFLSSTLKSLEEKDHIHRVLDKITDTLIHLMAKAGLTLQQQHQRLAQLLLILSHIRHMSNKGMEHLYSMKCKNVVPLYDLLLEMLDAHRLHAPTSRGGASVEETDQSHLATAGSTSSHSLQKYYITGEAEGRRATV

[2] = target: T2, ERα-pT594-strep (ERαLBD-F-strep phosphorylated in vitro by PKA) (human (from the printed UniProt entry), UniProt P03372 302-595, S305A | F591R | P592R, phosphothreonine at T594); assay: as above; conditions: both partners purified
T2 construct: also called ERα(PKA)-pT594-strep; phosphorylated ERα; source: E. coli NiCo21 (DE3), phosphorylated in vitro with His-PKA-strep and ATP, purified (Ni-NTA, Strep-Tactin, SEC); not shown: His tag, N-terminal, cleaved; SUMO, N-terminal, cleaved; strep-tag, C-terminal, kept
T2 sequence (looked up): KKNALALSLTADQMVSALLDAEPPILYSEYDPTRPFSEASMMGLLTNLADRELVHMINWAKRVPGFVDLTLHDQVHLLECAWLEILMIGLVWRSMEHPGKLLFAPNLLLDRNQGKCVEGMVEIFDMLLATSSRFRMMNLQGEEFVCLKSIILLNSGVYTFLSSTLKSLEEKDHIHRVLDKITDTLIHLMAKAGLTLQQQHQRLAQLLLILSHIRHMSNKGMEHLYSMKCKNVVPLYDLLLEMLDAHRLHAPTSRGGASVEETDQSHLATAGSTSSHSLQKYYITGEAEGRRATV

[3] = target: T3, ERα-Y537S LBD-F-strep (PKA-responsive), without 14-3-3ζ (human (from the printed UniProt entry), UniProt P03372 302-595, S305A | Y537S | F591R | P592R); assay: as above; conditions: both partners purified
T3 construct: the methods list ERα(PKA)-strep and ERα(PKA)-pT594-strep 'for WT ERα and Y537S mutant'; also called apo ERα-Y537S
T3 sequence (looked up): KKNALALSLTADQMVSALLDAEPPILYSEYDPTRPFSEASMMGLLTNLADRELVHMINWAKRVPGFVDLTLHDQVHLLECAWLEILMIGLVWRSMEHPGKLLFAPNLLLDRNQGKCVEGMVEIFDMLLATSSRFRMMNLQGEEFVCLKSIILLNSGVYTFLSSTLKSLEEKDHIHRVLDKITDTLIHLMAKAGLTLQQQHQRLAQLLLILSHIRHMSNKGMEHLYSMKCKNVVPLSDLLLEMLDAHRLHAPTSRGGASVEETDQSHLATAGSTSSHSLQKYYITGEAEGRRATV

[4] = target: T1, ERαLBD-F-strep (PKA-responsive, …); assay: fluorescence polarisation; fluorescence anisotropy; ERα or complex titrated (2-fold series from 40 μM ERα) to 20 nM fluorescein-labeled SRC1 peptide; DMSO control; 20 mM HEPES pH 7.5, 150 mM NaCl, 10 mM MgCl2, 0.1% Tween20, 0.1% BSA; room temperature; apparent KD (4PL fit); conditions: both partners purified
[5] = target: T2, ERα-pT594-strep (ERαLBD-F-strep …); assay: as above; conditions: both partners purified
[6] = target: T3, ERα-Y537S LBD-F-strep (PKA-responsive), …; assay: as above; conditions: both partners purified
[7] = target: T4, ERα-Y537S/14-3-3ζ protein complex (human (from the printed UniProt entry) …, UniProt P03372 302-595; P63104 1-245, Y537S | F591R | P592R, phosphothreonine at T594); assay: FP; DMSO
T4 sequence (P63104 whole entry, stated change not applied, one chain of several): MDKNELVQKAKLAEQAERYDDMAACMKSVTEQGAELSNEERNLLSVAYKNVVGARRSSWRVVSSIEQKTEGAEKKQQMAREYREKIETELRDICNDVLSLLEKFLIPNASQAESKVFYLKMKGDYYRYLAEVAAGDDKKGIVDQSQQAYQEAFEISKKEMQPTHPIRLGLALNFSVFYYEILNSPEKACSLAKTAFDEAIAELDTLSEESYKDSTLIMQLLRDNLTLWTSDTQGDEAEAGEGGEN

[8] = target: ERα-pT594-strep (ERαLBD-F-strep phosphorylated in vitro by PKA) (human (from the printed UniProt entry), UniProt P03372 302-595, S305A | F591R | P592R, phosphothreonine at T594); assay: FP; 100 uM E2
[9] = target: T4, ERα-Y537S/14-3-3ζ protein complex; assay: FP; 100 uM E2

## LTERHKILHRLLQEGSPSD (also: fluorescein (FITC) label, position not given here) [fluorescein-labeled SRC-1 cofactor peptide (LXXLL motif of SRC-1/NCoA-1)]
[1]
  Kd: 1000 nM
[2]
  Kd: 1000 nM
[3]
  Kd: 800 nM
[4]
  Kd: ~20000 nM
[5]
  Kd: ~20000 nM
[6]
  Kd: 1700 nM
[7]
  Kd: 700 nM
[8]
  Kd: 900 nM
[9]
  Kd: 400 nM
